{
  "source": "patent US20250066499A1",
  "about": "(SUNSHINE GUOJIAN PHARMACEUTICAL SHANGHAI, published 2025)",
  "key": {"CD73-ND-L133A": {"target": "T1, CD73-ND-L133A (human, UniProt P21589 27-317)", "T1 construct": "Alanine mutant of CD73-ND", "T1 sequence": "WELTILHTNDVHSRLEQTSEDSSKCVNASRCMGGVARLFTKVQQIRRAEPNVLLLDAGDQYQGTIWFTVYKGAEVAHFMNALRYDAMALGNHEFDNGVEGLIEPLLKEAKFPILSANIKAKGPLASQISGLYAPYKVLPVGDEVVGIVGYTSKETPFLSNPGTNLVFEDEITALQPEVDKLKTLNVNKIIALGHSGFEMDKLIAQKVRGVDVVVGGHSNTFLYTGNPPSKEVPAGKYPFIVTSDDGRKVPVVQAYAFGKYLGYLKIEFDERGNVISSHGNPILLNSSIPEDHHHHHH", "assay": "ELISA; decline multiple of Top against CD73-ND", "method": "(§1) The ELISA plates were coated with SA protein diluted to 1.5 μg/mL in coating buffer (50 mM carbonate coating buffer, pH 9.6) and incubated overnight at 4° C. The supernatant was discarded, and the plates were washed three times with PBST. Then, 5% skimmed milk powder prepared with PBS was added for blocking and the plates were incubated for 2 h at 37° C. After washing the plates once with PBST, CD73-biotin protein (prepared by biotinylating CD73-His protein according to the EZ-Link NHS-Biotin Reagent instructions) was diluted to 0.5 μg/mL and added at 100 μL/well for incubation at room temperature for 1 h. The plates were washed three times with PBST, and the prepared murine-derived monoclonal antibodies against human CD73 were serially diluted with 1% BSA buffer prepared with PBST and added to the ELISA plates at 100 μl/well. The plates were incubated at 37° C. for 1 h. After washing the plates three times with PBST, HRP-labeled goat anti-mouse IgG secondary antibody was added and the plates were incubated for 30 min at 37° C. After washing the plates three times with PBST, the residual droplets were patted dry on absorbent paper as much as possible. Then, 100 μl of TMB color developing solution was added to each well, and the plates were incubated in the dark at room temperature for 5 min for color development. Subsequently, 50 μl of 2M H₂SO₄ stop solution was added to each well to terminate the substrate reaction. The OD values were read at 450 nm using a multimode microplate reader to analyze the binding ability of the tested antibodies to the target antigen human CD73-His.\n(§2) Referring to the experimental method in Example 3, the affinity of 48A11-HuV33 for various mutant proteins of CD73-ND was determined. The SA protein was diluted to 1 μg/mL for coating the ELISA plates, and the biotinylated CD73 protein (CD73-biotin) was used at a concentration of 0.1 μg/mL."}, "CD73-ND-P134A [1]": {"target": "T2, CD73-ND-P134A (human, UniProt P21589 27-317)", "T2 construct": "Alanine mutant of CD73-ND", "T2 sequence": "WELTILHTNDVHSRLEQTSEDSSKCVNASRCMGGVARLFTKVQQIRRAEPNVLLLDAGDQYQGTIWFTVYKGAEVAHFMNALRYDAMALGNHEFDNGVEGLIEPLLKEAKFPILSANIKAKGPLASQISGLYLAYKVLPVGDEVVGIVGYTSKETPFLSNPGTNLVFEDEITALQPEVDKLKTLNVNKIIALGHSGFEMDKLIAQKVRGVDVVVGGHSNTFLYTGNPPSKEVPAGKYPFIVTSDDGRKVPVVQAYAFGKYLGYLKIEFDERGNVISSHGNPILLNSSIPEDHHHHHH", "assay": "ELISA; decline multiple of Top against CD73-ND", "method": "as §1, §2"}, "CD73-ND-V137A": {"target": "T3, CD73-ND-V137A (human, UniProt P21589 27-317)", "T3 construct": "Alanine mutant of CD73-ND", "T3 sequence": "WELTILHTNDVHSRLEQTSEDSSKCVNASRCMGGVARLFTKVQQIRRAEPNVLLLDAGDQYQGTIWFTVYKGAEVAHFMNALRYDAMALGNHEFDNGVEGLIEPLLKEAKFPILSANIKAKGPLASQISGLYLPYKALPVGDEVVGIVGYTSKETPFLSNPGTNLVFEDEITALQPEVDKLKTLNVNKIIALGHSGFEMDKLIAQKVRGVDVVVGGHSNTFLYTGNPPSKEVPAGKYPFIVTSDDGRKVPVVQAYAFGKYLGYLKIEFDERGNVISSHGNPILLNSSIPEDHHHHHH", "assay": "ELISA; decline multiple of Top against CD73-ND", "method": "as §1, §2"}, "CD73-ND-his": {"target": "T4, CD73-ND-his (human, UniProt P21589 27-317)", "T4 construct": "Biotinylated and captured on streptavidin in the ELISA", "T4 sequence": "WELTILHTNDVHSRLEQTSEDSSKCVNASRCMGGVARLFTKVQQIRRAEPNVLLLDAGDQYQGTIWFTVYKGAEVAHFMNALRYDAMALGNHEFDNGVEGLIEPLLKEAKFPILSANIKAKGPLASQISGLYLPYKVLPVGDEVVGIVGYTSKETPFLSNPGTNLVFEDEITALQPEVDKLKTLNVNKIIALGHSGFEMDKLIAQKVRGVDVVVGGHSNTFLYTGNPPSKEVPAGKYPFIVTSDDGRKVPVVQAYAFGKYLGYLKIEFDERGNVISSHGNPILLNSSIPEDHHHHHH", "assay": "ELISA, biotinylated antigen on streptavidin plate", "method": "as §1, §2"}, "CD73-ND-P134A [2]": {"target": "T2, CD73-ND-P134A", "assay": "ELISA, biotinylated antigen on streptavidin plate", "method": "as §1, §2"}, "CD73-ND-K136A": {"target": "T5, CD73-ND-K136A (human, UniProt P21589 27-317)", "T5 construct": "Alanine mutant of CD73-ND", "T5 sequence": "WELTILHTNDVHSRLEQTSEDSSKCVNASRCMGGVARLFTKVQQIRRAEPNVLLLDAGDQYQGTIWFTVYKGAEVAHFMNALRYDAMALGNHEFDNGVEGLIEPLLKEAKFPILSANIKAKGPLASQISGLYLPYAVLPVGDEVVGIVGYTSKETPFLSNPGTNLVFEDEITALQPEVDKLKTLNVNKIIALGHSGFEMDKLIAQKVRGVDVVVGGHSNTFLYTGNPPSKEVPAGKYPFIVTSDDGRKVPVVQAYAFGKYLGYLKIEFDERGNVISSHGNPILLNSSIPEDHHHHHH", "assay": "ELISA, biotinylated antigen on streptavidin plate", "method": "as §1, §2"}, "CD73-ND-L138A": {"target": "T6, CD73-ND-L138A (human, UniProt P21589 27-317)", "T6 construct": "Alanine mutant of CD73-ND", "T6 sequence": "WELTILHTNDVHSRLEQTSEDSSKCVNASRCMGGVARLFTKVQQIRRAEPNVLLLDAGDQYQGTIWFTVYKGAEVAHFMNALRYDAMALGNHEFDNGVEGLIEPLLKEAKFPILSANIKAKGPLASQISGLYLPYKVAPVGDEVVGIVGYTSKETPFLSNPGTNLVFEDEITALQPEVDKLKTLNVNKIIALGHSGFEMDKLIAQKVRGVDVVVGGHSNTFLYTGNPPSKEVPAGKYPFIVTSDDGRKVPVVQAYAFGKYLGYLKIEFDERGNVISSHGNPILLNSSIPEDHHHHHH", "assay": "ELISA, biotinylated antigen on streptavidin plate", "method": "as §1, §2"}},
  "data": [
    {"binder": "48A11-HuV33 (antibody, human IgG4, V domains shown, Humanized) VH: QVQLVQSGAEVKKPGASVKVSCKASGYTFTSYWMHWVRQAPGQGLEWIGEINPSIGRTNYNEKFKSRVTLTRDTSTSTAYMELSSLRSEDTAVYYCARRVYGTMDYWGQGTLVTVSS VL: DIQMTQSPSSLSASVGDRVTITCKASQDINSYLSWFQQKPGKSPKLLIYRANIWVDGVPSRFSGSGSGQDYTFTISSLQPEDIATYYCLQYDELYTFGQGTKVEIK", "values": [
      {"measurement": "Ratio(Top)", "setting": "CD73-ND-L133A", "value": 2.3, "unit": "fold"},
      {"measurement": "Ratio(Top)", "setting": "CD73-ND-P134A [1]", "value": 1.1, "unit": "fold"},
      {"measurement": "Ratio(Top)", "setting": "CD73-ND-V137A", "value": 1.3, "unit": "fold"},
      {"measurement": "EC50", "setting": "CD73-ND-his", "value": 0.152, "unit": "nM"},
      {"measurement": "EC50", "setting": "CD73-ND-P134A [2]", "value": 0.205, "unit": "nM"},
      {"measurement": "EC50", "setting": "CD73-ND-K136A", "value": 0.145, "unit": "nM"},
      {"measurement": "EC50", "setting": "CD73-ND-L138A", "value": 0.182, "unit": "nM"}
    ]}
  ]
}
